US20160207975A1 (published 2016)

Molecular target: CGRP receptor (CALCRL:RAMP1) on CALCRL:RAMP1-CRE-bla Freestyle 293F cells (UniProt Q16602 23-461; O60894 27-148, limits assumed)
Experiment: cell-based or functional assay

CGRP receptor (CALCRL:RAMP1) on CALCRL:RAMP1-CRE-bla Freestyle 293F cells, sequence (Q16602 23-461 limits assumed, chain 1 of 2): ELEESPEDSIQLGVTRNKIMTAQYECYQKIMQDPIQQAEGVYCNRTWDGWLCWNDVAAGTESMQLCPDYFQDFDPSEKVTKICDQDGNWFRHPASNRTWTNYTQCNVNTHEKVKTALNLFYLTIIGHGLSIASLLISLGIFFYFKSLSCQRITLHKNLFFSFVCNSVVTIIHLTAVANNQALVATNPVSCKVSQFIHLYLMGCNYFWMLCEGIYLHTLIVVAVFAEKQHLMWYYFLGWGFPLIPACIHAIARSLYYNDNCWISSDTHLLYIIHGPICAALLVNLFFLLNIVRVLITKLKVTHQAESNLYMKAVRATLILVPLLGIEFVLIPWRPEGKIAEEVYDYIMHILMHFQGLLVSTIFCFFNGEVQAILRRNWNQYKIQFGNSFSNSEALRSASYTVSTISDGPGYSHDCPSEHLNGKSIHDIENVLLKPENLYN
CGRP receptor (CALCRL:RAMP1) on CALCRL:RAMP1-CRE-bla Freestyle 293F cells, sequence (O60894 27-148 limits assumed, chain 2 of 2): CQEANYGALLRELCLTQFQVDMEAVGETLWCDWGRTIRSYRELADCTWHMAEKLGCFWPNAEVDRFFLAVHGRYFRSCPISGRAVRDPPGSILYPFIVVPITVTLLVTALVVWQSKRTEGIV

**Q.** Which “percent activation of the CGRP receptor (CALCRL:RAMP1-CRE-bla Freestyle 293F agonist screen), EC50” value does the source give for H-ACDTATCVLGRLSQELHRLQTYPRTNVGSKAF-NH2 (ends and bridges not checked) [ACX017 (SEQ ID NO:1)] here?
**A.** ~105 nM
